Data from US20220017622A1 (Pfizer, published 2022).
Changes are numbered by the printed parent chain.

Target: T1, human B7-H4 on cells (human, UniProt Q7Z7D3 25-282)
T1 sequence (looked up): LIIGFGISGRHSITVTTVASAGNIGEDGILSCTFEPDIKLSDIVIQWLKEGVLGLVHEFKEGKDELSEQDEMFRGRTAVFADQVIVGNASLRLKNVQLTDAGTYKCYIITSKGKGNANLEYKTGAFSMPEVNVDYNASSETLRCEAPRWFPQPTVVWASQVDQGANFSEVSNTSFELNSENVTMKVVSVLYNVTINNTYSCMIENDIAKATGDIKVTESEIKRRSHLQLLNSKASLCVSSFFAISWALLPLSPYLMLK
Experiment: cell-based or functional assay
For T cell mediated tumor cell killing, OVCAR3-Luc in this document: unit not given here.

B1: B7-H4xCD3 bispecific antibody 0998 (bispecific antibody, IgG2)
heavy 1: EVQLLESGGGLVQPGGSLRLSCAASGFTFSSYAMSWVRQAPGKGLEWVSAISGGGGSTQYADSVKGRFTISRDNSKNTLYLQMNSLRAEDTAVYYCARDIQWFGESTLFDYWGQGTLVTVSSASTKGPSVFPLAPCSRSTSESTAALGCLVKDYFPEPVTVSWNSGALTSGVHTFPAVLQSSGLYSLSSVVTVPSSNFGTQTYTCNVDHKPSNTKVDKTVERKCEVECPECPAPPVAGPSVFLFPPKPKDTLMISRTPEVTCVVVAVSHEDPEVQFNWYVDGVEVHNAKTKPREEQFNSTFRVVSVLTVVHQDWLNGKEYKCKVSNKGLPSSIEKTISKTKGQPREPQVYTLPPSREEMTKNQVSLTCEVKGFYPSDIAVEWESNGQPENNYKTTPPMLDSDGSFFLYSKLTVDKSRWQQGNVFSCSVMHEALHNHYTQKSLSLSPG
light 1: DIQLTQSPSTLSASVGDRVTITCRASQSIRSWLAWFQQKPGKAPKLLIYKASSLEGGVPSRFSGSGSGTEFTLTISSLQPDDFATYYCQQYNSYSRTFGQGTKVEIKRTVAAPSVFIFPPSDEQLKSGTASVVCLLNNFYPREAKVQWKVDNALQSGNSQESVTEQDSKDSTYSLSSTLTLSKADYEKHKVYACEVTHQGLSSPVTKSFNRGEC
heavy 2: EVQLVESGGGLVQPGGSLRLSCAASGFTFSDYYMTWVRQAPGKGLEWVAFIRNQARGYTSDHNPSVKGRFTISRDNAKNSLYLQMNSLRAEDTAVYYCARDRPSYYVLDYWGQGTTVTVSSASTKGPSVFPLAPCSRSTSESTAALGCLVKDYFPEPVTVSWNSGALTSGVHTFPAVLQSSGLYSLSSVVTVPSSNFGTQTYTCNVDHKPSNTKVDKTVERKCRVRCPRCPAPPVAGPSVFLFPPKPKDTLMISRTPEVTCVVVAVSHEDPEVQFNWYVDGVEVHNAKTKPREEQFNSTFRVVSVLTVVHQDWLNGKEYKCKVSNKGLPSSIEKTISKTKGQPREPQVYTLPPSREEMTKNQVSLTCLVKGFYPSDIAVEWESNGQPENNYKTTPPMLDSDGSFFLYSRLTVDKSRWQQGNVFSCSVMHEALHNHYTQKSLSLSPGK
light 2: DIQMTQSPSSLSASVGDRVTITCTSSQSLFNVRSQKNYLAWYQQKPGKAPKLLIYWASTRESGVPSRFSGSGSGTDFTLTISSLQPEDFATYYCKQSYDLFTFGGGTKVEIKRTVAAPSVFIFPPSDEQLKSGTASVVCLLNNFYPREAKVQWKVDNALQSGNSQESVTEQDSKDSTYSLSSTLTLSKADYEKHKVYACEVTHQGLSSPVTKSFNRGEC
B1 was tested, and the “T cell mediated tumor cell killing EC50, HCC1954-Luc” value was 410 nM.

B2: B7-H4xCD3 bispecific antibody 1130 (bispecific antibody, IgG2)
heavy 1: EVQLVESGGGLVQPGGSLRLSCAASGGSFSGYYWNWIRQPPGKGLEWIGEINHSGSATYNPSLKSRVTISVDTAKNSLYLQMNSLRAEDTAVYYCARGLYNWNVDHWGQGTLVTVSSASTKGPSVFPLAPCSRSTSESTAALGCLVKDYFPEPVTVSWNSGALTSGVHTFPAVLQSSGLYSLSSVVTVPSSNFGTQTYTCNVDHKPSNTKVDKTVERKCEVECPECPAPPVAGPSVFLFPPKPKDTLMISRTPEVTCVVVAVSHEDPEVQFNWYVDGVEVHNAKTKPREEQFNSTFRVVSVLTVVHQDWLNGKEYKCKVSNKGLPSSIEKTISKTKGQPREPQVYTLPPSREEMTKNQVSLTCEVKGFYPSDIAVEWESNGQPENNYKTTPPMLDSDGSFFLYSKLTVDKSRWQQGNVFSCSVMHEALHNHYTQKSLSLSPG
light 1: DIQMTQSPSSLSASVGDRVTITCRASQGIRNDLGWYQQKPGKAPKRLIYAASSLQSGVPSRFSGSGSGTDFTLTISSLQPEDFATYYCLQHNAYPRTFGGGTKVEIKRTVAAPSVFIFPPSDEQLKSGTASVVCLLNNFYPREAKVQWKVDNALQSGNSQESVTEQDSKDSTYSLSSTLTLSKADYEKHKVYACEVTHQGLSSPVTKSFNRGEC
heavy 2: B1 heavy 2
light 2: B1 light 2
In the case of B2, the “T cell mediated tumor cell killing EC50, HCC1954-Luc” value is reported as 73700 nM and the “T cell mediated tumor cell killing, OVCAR3-Luc” value is reported as 810.

B3: B7-H4xCD3 bispecific antibody 1000 (bispecific antibody, IgG2)
heavy 1: B1 heavy 1 with Q59Y, F103H
light 1: B1 light 1
heavy 2: B1 heavy 2
light 2: B1 light 2
B3 was tested, and the “T cell mediated tumor cell killing EC50, HCC1954-Luc” value was 100 nM.

B4: B7-H4xCD3 bispecific antibody 1135 (bispecific antibody, IgG2)
heavy 1: B2 heavy 1 with I37V, P40A
light 1: B2 light 1
heavy 2: B1 heavy 2
light 2: B1 light 2
B4 was tested, and the “T cell mediated tumor cell killing EC50, HCC1954-Luc” value was 1200 nM and the “T cell mediated tumor cell killing, OVCAR3-Luc” value was 420.

B5: B7-H4xCD3 bispecific antibody 1166 (bispecific antibody, IgG2)
heavy 1: B1 heavy 1 with Q59Y, F103Y
light 1: B1 light 1 with L4M, T10S, I29T, F36Y, E70D, D81E, N92G
heavy 2: B1 heavy 2
light 2: B1 light 2
For B5, the “T cell mediated tumor cell killing EC50, HCC1954-Luc” value was 15500 nM and the “T cell mediated tumor cell killing, OVCAR3-Luc” value was 800.

B6: B7-H4xCD3 bispecific antibody 0976 (bispecific antibody, IgG2)
heavy 1: B2 heavy 1 with A24V, N52D, S54Q, A57T, T58K, G98E
light 1: B2 light 1
heavy 2: B1 heavy 2
light 2: B1 light 2
With B6 the “T cell mediated tumor cell killing EC50, HCC1954-Luc” value was 2170 nM.

B7: B7-H4xCD3 bispecific antibody 0090 (bispecific antibody, human IgG1, kappa)
heavy 1: QVQLQQWGAGLLKPSETLSLTCAVYGGSFSGYYWNWIRQPPGKGLEWIGEINHSGSTKYNPSLKSRVTISGDTSKNQFSLKLNSVTAADTAVYYCVRGLYNWNVDSWGQGTLVTVSSASTKGPSVFPLAPSSKSTSGGTAALGCLVKDYFPEPVTVSWNSGALTSGVHTFPAVLQSSGLYSLSSVVTVPSSSLGTQTYICNVNHKPSNTKVDKKVEPKSCDKTHTCPPCPAPEAAGAPSVFLFPPKPKDTLMISRTPEVTCVVVDVSHEDPEVKFNWYVDGVEVHNAKTKPREEQYNSTYRVVSVLTVLHQDWLNGKEYKCKVSNKALPAPIEKTISKAKGQPREPQVYTLPPSREEMTKNQVSLTCEVKGFYPSDIAVEWESNGQPENNYKTTPPVLDSDGSFFLYSKLTVDKSRWQQGNVFSCSVMHEALHNHYTQKSLSLSPG
light 1: B2 light 1 with A50V, D70E, A93S, R96Y, G100Q, V104L
heavy 2: EVQLVESGGGLVQPGGSLRLSCAASGFTFSDYYMTWVRQAPGKGLEWVAFIRNQARGYTSDHNPSVKGRFTISRDNAKNSLYLQMNSLRAEDTAVYYCARDRPSYYVLDYWGQGTTVTVSSASTKGPSVFPLAPSSKSTSGGTAALGCLVKDYFPEPVTVSWNSGALTSGVHTFPAVLQSSGLYSLSSVVTVPSSSLGTQTYICNVNHKPSNTKVDKKVEPKSCDKTHTCPPCPAPEAAGAPSVFLFPPKPKDTLMISRTPEVTCVVVDVSHEDPEVKFNWYVDGVEVHNAKTKPREEQYNSTYRVVSVLTVLHQDWLNGKEYKCKVSNKALPAPIEKTISKAKGQPREPQVYTLPPSREEMTKNQVSLTCLVKGFYPSDIAVEWESNGQPENNYKTTPPVLDSDGSFFLYSRLTVDKSRWQQGNVFSCSVMHEALHNHYTQKSLSLSPG
light 2: B1 light 2
For B7, the “T cell mediated tumor cell killing EC50, HCC1954-Luc” value was 68 nM.

B8: B7-H4xCD3 bispecific antibody 0978 (bispecific antibody, IgG2)
heavy 1: B2 heavy 1 with N52D, S54Q, A57T, T58K, G98E
light 1: B2 light 1 with N92S, A93S
heavy 2: B1 heavy 2
light 2: B1 light 2
B8 was tested, and the “T cell mediated tumor cell killing EC50, HCC1954-Luc” value was 320 nM.

B9: B7-H4xCD3 bispecific antibody 1001 (bispecific antibody, IgG2)
heavy 1: B1 heavy 1 with Q59Y, E105R
light 1: B1 light 1
heavy 2: B1 heavy 2
light 2: B1 light 2
With B9 the “T cell mediated tumor cell killing EC50, HCC1954-Luc” value was 10 nM.

B10: B7-H4xCD3 bispecific antibody 1003 (bispecific antibody, IgG2)
heavy 1: B1 heavy 1 with Q59Y
light 1: B1 light 1 with L4M, T10S, I29T, W32H, F36Y, E70D, D81E, N92G
heavy 2: B1 heavy 2
light 2: B1 light 2
With B10 the “T cell mediated tumor cell killing EC50, HCC1954-Luc” value was 100 nM.

B11: B7-H4xCD3 bispecific antibody 0974 (bispecific antibody, IgG2)
heavy 1: B2 heavy 1 with N52D, S54Q, A57T, T58K
light 1: B2 light 1
heavy 2: B1 heavy 2
light 2: B1 light 2
With B11 the “T cell mediated tumor cell killing EC50, HCC1954-Luc” value was 764 nM.
